Data reported in patent publication US20120141463A1 (AstraZeneca / MedImmune, published 2012).
No end group written: not given here. Ahx = NCCCCCC(=O)O

T1: cεmx.migis peptide (human, C-terminal -(Ahx)(K-Biot): aminohexanoic acid linker followed by a biotinylated lysine)
T1 construct: also called peptide (ii); cεmx.migs peptide
T1 peptide: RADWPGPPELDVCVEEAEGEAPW

T2: peptide from phosphoinositide binding protein (human)
T2 construct: also called peptide (vi); PIBP peptide
T2 peptide: TQLLCVEAFEGEEPW-{Ahx-K(biotin)}

T3: ε-migis peptide (human)
T3 construct: also called peptide (i); human ε-migis
T3 peptide: ELDVCVEEAEGEAPW-{Ahx-K(biotin)}


What was measured:
cεmx.migis peptide [1] = target: T1, cεmx.migis peptide; assay: inhibition phage ELISA: cεmx.migis peptide on Neutravidin plate, phage with control IgG, A1c or B1, anti-M13-HRP
[2] = target: T2, peptide from phosphoinositide binding …; assay: peptide ELISA (Migis, cemx.migis, PIBP peptide); antibody concentration not shown
ε-migis peptide = target: T3, ε-migis peptide; assay: as above
mIgM on RPMI 1788 cells = target: T4, mIgM on RPMI 1788 cells (human, UniProt P01871 1-474); assay: FACS, primary antibody plus secondary (Gt α Mu or G α Hu); % cells staining and MF
T4 construct: whole, on cells; Endogenous immunoglobulin of the cell line; light chain not described; also called IgM (RPMI 1788 cells); membrane IgM

cεmx.migis peptide [3] = target: T1, cεmx.migis peptide; assay: inhibition phage ELISA: cεmx.migis peptide on Neutravidin plate, phage with irrelevant IgG control or A1c IgG, anti-M13-HRP

T4 sequence (P01871 whole entry): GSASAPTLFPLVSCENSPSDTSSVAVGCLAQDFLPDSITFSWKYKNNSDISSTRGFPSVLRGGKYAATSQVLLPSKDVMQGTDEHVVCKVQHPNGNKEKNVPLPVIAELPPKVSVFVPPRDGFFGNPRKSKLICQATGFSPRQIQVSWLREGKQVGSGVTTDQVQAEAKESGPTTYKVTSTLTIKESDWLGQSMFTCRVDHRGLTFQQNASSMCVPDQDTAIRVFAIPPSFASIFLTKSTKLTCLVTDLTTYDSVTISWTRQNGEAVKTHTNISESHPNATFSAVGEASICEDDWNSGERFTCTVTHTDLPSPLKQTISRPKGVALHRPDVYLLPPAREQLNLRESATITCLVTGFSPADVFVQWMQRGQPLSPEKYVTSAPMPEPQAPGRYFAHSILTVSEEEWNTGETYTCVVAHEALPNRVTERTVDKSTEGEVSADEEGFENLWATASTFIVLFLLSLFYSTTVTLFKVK

Row | Binder | binding result (cεmx.migis peptide [1]) | binding result [2] | binding result (ε-migis peptide) | binding result (mIgM on RPMI 1788 cells) | binding result (cεmx.migis peptide [3])
1 | F4 antibody (antibody, V domains shown, Human Fab phage clone converted to full length IgG; also called clone F4) VH: EVQLLESGGGLVQPGGSLRLSCAASGFTFSNYGMFWVRQAPGKGLEWVSSIWPSGGNTMYADSVKGRFTISRDNSKNTLYLQMNSLRAEDTAVYYCARASYYGMDVWGQGTTVTVSS VL: DIQMTQSPSSLSASIGDRVTITCRGSQNIGRYLNWYQHKPGKAPDLLVYAASSLRSGVPSRFSGSGSGRDFTLTISSLQPGDFATYYCQQSYSAPFTFGAGTKVDVKR | binds |  |  |  | 
2 | D5 antibody (antibody, V domains shown, Fully human clone from the Dyax FAB-310 Fab phage library, converted to full length IgG (detected with an anti-human IgG1 Fc antibody); also called D5 IgG; clone D5) VH: EVQLLESGGGLVQPGGSLRLSCAASGFTFSKYHMVWVRQAPGKGLEWVSSIGPSGGNTYYADSVKGRFTISRDNSKNTLYLQMNSLRAEDTATYYCARALGATFDYWGQGTLVTVSS VL: DIQMTQSPLSLPVTLGQPASISCKSSQSLVYRDGITYLSWFQQRPGQSPRRLIYKVSNRDSGVPDRFSGSGSDSNFTLKISSVEAEDVGLYFCMQGSHWPFTFGPGTKVDIKR | binds | no binding | no binding | no binding | 
3 | B1 antibody (antibody, V domains shown, Human Fab phage clone converted to full IgG; also called CP1-B1) VH: not shown VL: DIQMTQSPVSLPVTLGQPASISCRSSHSLVYSHGGTYLNWFQQRPGRSPRRLIYQVSNRDSGVPDRFSGSGSDTDFTLQISRVEADDIGIYYCMQSTYWPYAFGQGTKLDIKR | binds | no binding | no binding |  | 
4 | A1c antibody (antibody, V domains shown, Human Fab phage clone converted to full IgG; also called anti ε-migis antibody A1c) VH: EVQLLESGGGLVQPGGSLRLSCAASGFTFSFYSMLWVRQAPGKGLEWVSYIGPSGGKTYYADSVKGRFTISRDNSKNTLYLQMNSLRAEDTAMYYCARRYCSGGSCYFDYWGQGTLVTVSS VL: DIQMTQSPSTLSASIGDRVTITCRASQSINSWLAWYQQKPGKGPDLLIYKASSLQSGVPSRFSGSGSGTEFTLTISSLQPDDFATYYCQQYSSWPLTFGGGTKVEIKR |  | binds | binds |  | binds
